Test results reported in the Immune Epitope Database (IEDB).

Legend:
HLA-A*03:01 [1] = assay: IEDB peptide-MHC binding, purified MHC/direct/fluorescence; filed as Kd, often an IC50 or EC50 that approximates it; ≥ and ≤ were set here for values at or beyond the usual limits of such assays
HLA-A*11:01 [2] = assay: as above
HLA-A*31:01 = assay: IEDB peptide-MHC binding, purified MHC/competitive/fluorescence; filed as Kd, often an IC50 or EC50 that approximates it; ≥ and ≤ were set here for values at or beyond the usual limits of such assays
HLA-A*02:01 [3] = assay: IEDB peptide-MHC binding, purified MHC/competitive/fluorescence; ≥ and ≤ were set here for values at or beyond the usual limits of such assays; details: source organism: Zaire ebolavirus
HLA-A*03:01 [4] = assay: as above
HLA-A*11:01 [5] = assay: as above
HLA-A*24:02 = assay: as above; details: source organism: Zaire ebolavirus
HLA-B*15:01 [6] = assay: as above; details: source organism: Zaire ebolavirus
HLA-B*15:17 [7] = assay: IEDB peptide-MHC binding, purified MHC/direct/fluorescence; filed as Kd, often an IC50 or EC50 that approximates it; ≥ and ≤ were set here for values at or beyond the usual limits of such assays
HLA-B*57:01 [8] = assay: as above
HLA-B*58:01 = assay: as above
HLA-A*02:01 [9] = assay: IEDB peptide-MHC binding, purified MHC/competitive/fluorescence; filed as Kd, often an IC50 or EC50 that approximates it; ≥ and ≤ were set here for values at or beyond the usual limits of such assays
HLA-A*02:11 = assay: as above
HLA-A*02:19 [10] = assay: as above; details: source organism: Human immunodeficiency virus 1
HLA-A*69:01 [11] = assay: as above
HLA-A*69:01 [12] = assay: IEDB peptide-MHC binding, purified MHC/direct/fluorescence; filed as Kd, often an IC50 or EC50 that approximates it; ≥ and ≤ were set here for values at or beyond the usual limits of such assays
HLA-C*05:01 = assay: as above
HLA-B*15:42 = assay: IEDB peptide-MHC binding, purified MHC/competitive/fluorescence; filed as Kd, often an IC50 or EC50 that approximates it; ≥ and ≤ were set here for values at or beyond the usual limits of such assays
HLA-B*45:06 = assay: as above
HLA-B*83:01 = assay: as above
HLA-A*29:02 [13] = assay: as above
HLA-A*03:01 [14] = assay: as above
HLA-B*15:01 [15] = assay: as above; details: source organism: Escherichia coli 536
HLA-A*30:02 = assay: IEDB peptide-MHC binding, purified MHC/competitive/radioactivity; filed as Kd, often an IC50 or EC50 that approximates it; ≥ and ≤ were set here for values at or beyond the usual limits of such assays; details: source organism: Dengue virus 4 Philippines/H241/1956
HLA-B*15:01 [16] = assay: as above; details: source organism: Dengue virus 4 Philippines/H241/1956
HLA-A*01:01 = assay: IEDB peptide-MHC binding, purified MHC/direct/fluorescence; filed as Kd, often an IC50 or EC50 that approximates it; ≥ and ≤ were set here for values at or beyond the usual limits of such assays; details: source organism: Mycobacterium tuberculosis
HLA-A*29:02 [17] = assay: as above; details: source organism: Mycobacterium tuberculosis str. Haarlem
HLA-B*40:01 = assay: as above; details: source organism: Mycobacterium tuberculosis variant bovis
HLA-A*02:03 = assay: as above; details: source organism: Mycobacterium tuberculosis str. Haarlem
HLA-A*02:12 = assay: as above; details: source organism: Convict Creek 107 virus
HLA-A*02:19 [18] = assay: as above; details: source organism: Convict Creek 107 virus
HLA-A*26:01 = assay: IEDB peptide-MHC binding, purified MHC/competitive/fluorescence; filed as Kd, often an IC50 or EC50 that approximates it; ≥ and ≤ were set here for values at or beyond the usual limits of such assays; details: source organism: Kurkino virus
HLA-B*15:17 [19] = assay: as above; details: source organism: Kurkino virus
HLA-B*18:01 = assay: as above; details: source organism: Kurkino virus
HLA-B*27:03 = assay: as above; details: source organism: Kurkino virus
HLA-B*39:01 = assay: as above; details: source organism: Kurkino virus
HLA-B*46:01 = assay: as above; details: source organism: Kurkino virus
HLA-B*51:01 = assay: as above; details: source organism: Kurkino virus
HLA-B*57:01 [20] = assay: as above; details: source organism: Kurkino virus
[21] = source organism: Mycobacterium tuberculosis
[22] = source organism: Zaire ebolavirus
[23] = source organism: Vaccinia virus WR
[24] = source organism: Vibrio vulnificus YJ016
[25] = source organism: Bacillus anthracis
[26] = source organism: Human immunodeficiency virus 1
[27] = source organism: West Nile virus
[28] = source organism: Yersinia pestis
[29] = source organism: Yersinia pestis Nepal516
[30] = source organism: Brucella abortus bv. 2 str. 86/8/59
[31] = source organism: Camelpox virus CMS
[32] = source organism: Eastern equine encephalitis virus (STRAIN VA33[TEN BROECK])
[33] = source organism: Escherichia coli 536
[34] = source organism: dengue virus type 4
[35] = source organism: Giardia lamblia ATCC 50803
[36] = source organism: Sudan ebolavirus
[37] = source organism: Mycobacterium tuberculosis variant bovis
[38] = source organism: Vaccinia virus Copenhagen

## AAMVLLLRK
HLA-A*03:01 [1]; [21]
  Kd: 0.0795 µM
HLA-A*11:01 [2]; [21]
  Kd: ≤ 0.001 µM
HLA-A*31:01; source organism: Mycobacterium tuberculosis variant bovis BCG str. Pasteur 1173P2
  Kd: ≥ 20 µM

## AIGLAWIPY
HLA-A*02:01 [3]
  IC50: ≥ 245 µM
HLA-A*03:01 [4]; [22]
  IC50: 1.54 µM
HLA-A*11:01 [5]; [22]
  IC50: 61.4 µM
HLA-A*24:02
  IC50: ≥ 166 µM
HLA-B*15:01 [6]
  IC50: 1.46 µM

## ANNNRLPKR
HLA-A*11:01 [5]; [23]
  IC50: 11.7 µM

## ASLPKTSGH
HLA-A*03:01 [4]; [22]
  IC50: 20.1 µM
HLA-A*11:01 [5]; [22]
  IC50: 2.61 µM
HLA-B*15:01 [6]
  IC50: ≥ 143 µM

## ATGFPFFDR
HLA-A*03:01 [1]; [24]
  Kd: ≥ 20 µM
HLA-A*11:01 [2]; [24]
  Kd: 0.0011 µM
HLA-A*31:01; [24]
  Kd: 0.00235 µM

## ATTAAGPPK
HLA-A*02:01 [3]
  IC50: ≥ 354 µM
HLA-A*03:01 [4]; [22]
  IC50: 6.3 µM
HLA-A*11:01 [5]; [22]
  IC50: 0.762 µM

## CSTLPFHTW
HLA-B*15:17 [7]; [25]
  Kd: 0.0012 µM
HLA-B*57:01 [8]; [25]
  Kd: 0.0071 µM
HLA-B*58:01; [25]
  Kd: 0.0038 µM

## ELADQLIHL
HLA-A*02:01 [9]; [26]
  Kd: 1.16 µM
HLA-A*02:11; [26]
  Kd: 0.0262 µM
HLA-A*02:19 [10]
  Kd: 0.00675 µM
HLA-A*69:01 [11]; [26]
  Kd: ≤ 0.001 µM

## EMYRHILRS
HLA-A*02:01 [3]
  IC50: 8.88 µM
HLA-A*03:01 [4]; [22]
  IC50: ≥ 96.9 µM

## FLAVGGVLL
HLA-A*69:01 [12]; [27]
  Kd: ≥ 20 µM
HLA-C*05:01; [27]
  Kd: 4.18 µM

## FPSVFINPV
HLA-C*05:01; source organism: Myxoma virus
  Kd: ≥ 20 µM

## FSLGQGVKF
HLA-B*15:17 [7]; source organism: Shigella flexneri
  Kd: 0.0019 µM

## GSYFSGFYK
HLA-A*03:01 [1]; [28]
  Kd: 0.0137 µM
HLA-A*11:01 [2]; [28]
  Kd: ≤ 0.001 µM
HLA-A*31:01; [29]
  Kd: ≤ 0.001 µM
HLA-B*15:42; [29]
  Kd: ≥ 5 µM
HLA-B*45:06; [29]
  Kd: ≥ 5 µM
HLA-B*83:01; [29]
  Kd: ≥ 5 µM

## IFFLPQFYY
HLA-A*29:02 [13]; source organism: Listeria monocytogenes FSL R2-561
  Kd: 0.0016 µM

## ILDDPEIYP
HLA-A*02:01 [9]; [30]
  Kd: 12 µM
HLA-A*02:11; [30]
  Kd: 0.677 µM

## ISIPRSVGF
HLA-B*15:17 [7]; [31]
  Kd: ≤ 0.001 µM
HLA-B*57:01 [8]; [31]
  Kd: 0.0859 µM
HLA-B*58:01; [31]
  Kd: 0.0303 µM

## ITYGSVSWR
HLA-A*03:01 [1]; [32]
  Kd: 0.0612 µM
HLA-A*11:01 [2]; [32]
  Kd: 0.0068 µM
HLA-A*31:01; source organism: Eastern equine encephalitis virus
  Kd: 0.0015 µM

## ITYTDVLRY
HLA-A*03:01 [1]; [27]
  Kd: 0.144 µM
HLA-A*11:01 [2]; [27]
  Kd: 0.0148 µM
HLA-B*15:17 [7]; [27]
  Kd: ≤ 0.001 µM
HLA-B*57:01 [8]; [27]
  Kd: 0.105 µM
HLA-B*58:01; [27]
  Kd: 0.038 µM
HLA-A*31:01; [27]
  Kd: ≥ 20 µM

## KHVGLITCK
HLA-A*03:01 [4]; [23]
  IC50: 47.2 µM
HLA-A*11:01 [5]; [23]
  IC50: ≥ 80 µM

## KLIAVPHTK
HLA-A*03:01 [14]; [33]
  Kd: 0.135 µM
HLA-A*31:01; [33]
  Kd: 0.9 µM
HLA-B*15:01 [15]
  Kd: ≥ 20 µM

## KVASAGISY
HLA-A*11:01 [2]; [34]
  Kd: 0.0521 µM
HLA-A*31:01; [34]
  Kd: ≥ 20 µM
HLA-A*30:02
  Kd: 0.0404 µM
HLA-B*15:01 [16]
  Kd: 0.00185 µM

## MLYKSSKSR
HLA-A*03:01 [14]; source organism: Kurkino virus
  Kd: 0.0032 µM
HLA-A*31:01; source organism: Kurkino virus
  Kd: 0.0517 µM

## NTWNQITKF
HLA-B*15:17 [7]; [35]
  Kd: 0.0764 µM
HLA-B*57:01 [8]; [35]
  Kd: 1.11 µM
HLA-B*58:01; [35]
  Kd: 0.905 µM

## PTAIYTLEY
HLA-A*01:01
  Kd: 0.0092 µM
HLA-A*29:02 [17]
  Kd: 0.006 µM

## QLPRDKFRK
HLA-A*03:01 [4]; [36]
  IC50: 3.38 µM
HLA-A*11:01 [5]; [36]
  IC50: 0.723 µM

## REAPYELNI
HLA-B*40:01
  Kd: 0.0628 µM
HLA-B*15:42; [37]
  Kd: ≥ 5 µM
HLA-B*45:06; [37]
  Kd: ≥ 5 µM
HLA-B*83:01; [37]
  Kd: ≥ 5 µM

## RVIPPSLLR
HLA-A*03:01 [1]; source organism: Mycobacterium leprae
  Kd: 1.75 µM
HLA-A*31:01; source organism: Mycobacterium tuberculosis C
  Kd: 0.0135 µM

## TITEKTFKD
HLA-A*11:01 [5]; [38]
  IC50: 36.5 µM

## TKLYKNKSK
HLA-A*03:01 [4]; [38]
  IC50: 44.3 µM
HLA-A*11:01 [5]; [38]
  IC50: 57.5 µM

## TTQSIHENK
HLA-A*11:01 [5]; source organism: Vaccinia virus
  IC50: 6.04 µM

## VIAFLILAK
HLA-A*03:01 [4]; [36]
  IC50: 1.69 µM
HLA-A*11:01 [5]; [36]
  IC50: 0.564 µM

## VLLDSITRL
HLA-A*02:03
  Kd: ≤ 0.001 µM
HLA-A*69:01 [12]; [21]
  Kd: 4.35 µM

## VMADFDLEM
HLA-A*29:02 [13]; source organism: Vibrio cholerae NCTC 8457
  Kd: ≤ 0.0001 µM

## VQQGIVRQR
HLA-A*03:01 [4]; [22]
  IC50: ≥ 160 µM
HLA-A*11:01 [5]; [22]
  IC50: 8.37 µM

## WFLYVSQQI
HLA-A*02:12
  Kd: ≥ 20 µM
HLA-A*02:19 [18]
  Kd: ≥ 20 µM
HLA-A*03:01 [1]; source organism: Convict Creek 107 virus
  Kd: ≥ 20 µM
HLA-A*26:01
  Kd: ≥ 20 µM
HLA-A*69:01 [11]; source organism: Kurkino virus
  Kd: ≥ 20 µM
HLA-B*15:17 [19]
  Kd: ≥ 20 µM
HLA-B*18:01
  Kd: ≥ 20 µM
HLA-B*27:03
  Kd: ≥ 20 µM
HLA-B*39:01
  Kd: ≥ 20 µM
HLA-B*46:01
  Kd: ≥ 20 µM
HLA-B*51:01
  Kd: ≥ 20 µM
HLA-B*57:01 [20]
  Kd: ≥ 20 µM

## YFNDPALGH
HLA-A*29:02 [13]; [35]
  Kd: 0.114 µM

## YYFDIYNKQ
HLA-A*29:02 [13]; source organism: Listeria monocytogenes EGD-e
  Kd: 0.073 µM
